± gives the uncertainty stated by the source.
B1: Protein maelstrom homolog, residues 3 to 71; numbered along this chain, Q96JY0 (parent)
chain: NRKASRNAYYFFVQEKIPELRRRGLPVARVADAIPYCSSDWALLREEEKEKYAEMAREWRAAQGKDPGP

Variants of: B1
Assay: abundance fitness (aPCA) (normalised: wild type 0, dead -1); higher = more abundant; growth selection in yeast, the domain comes from the species named
Conditions: Homo sapiens

| Variant | abundance fitness |
| --- | --- |
| NRKASRNAYYFFVQEKIPELRRRGLPVARVADAIPYCSSDWMLLREEEKEKYAEMAREWRAAQGKDPGP [A42M] | -0.083 ± 0.08 |
| NRKASRNAYYFFVQEKIPELRRRGLPVARVADAIHYCSSDWALLREEEKEKYAEMAREWRAAQGKDPGP [P35H] | 0.058 ± 0.28 |
| NRKASRNAYYFFVQEKIPELRYRGLPVARVADAIPYCSSDWALLREEEKEKYAEMAREWRAAQGKDPGP [R22Y] | -0.583 ± 0.2 |
| NRKASRNAYYFFVQEKIPELRRRGLPTARVADAIPYCSSDWALLREEEKEKYAEMAREWRAAQGKDPGP [V27T] | -0.235 ± 0.17 |
| NRKASRNAYYFFVQEKIPELRRRGLPVARVADAIPYCSSDWALLREEEKEKYAEMARGWRAAQGKDPGP [E58G] | -0.082 ± 0.063 |
| NRKASVNAYYFFVQEKIPELRRRGLPVARVADAIPYCSSDWALLREEEKEKYAEMAREWRAAQGKDPGP [R6V] | -0.467 ± 0.24 |
| NRKASRNAYYFFVQEKVPELRRRGLPVARVADAIPYCSSDWALLREEEKEKYAEMAREWRAAQGKDPGP [I17V] | -0.166 ± 0.055 |
| NRKASRNAYYFFVQEKIPELRRRGLPVARVADAIPYCSSDWALLREEEKEKYAEMAREWRAAQGKDPGA [P69A] | -0.007 ± 0.091 |
| NRKASRNAYYFFVQEKIPELRRRGLPVARVADRIPYCSSDWALLREEEKEKYAEMAREWRAAQGKDPGP [A33R] | -0.83 ± 0.083 |
| NRKASRNAYYFFVQEKIPELRRRGLPRARVADAIPYCSSDWALLREEEKEKYAEMAREWRAAQGKDPGP [V27R] | -0.742 ± 0.077 |
| NRKASRNAYYFFFQEKIPELRRRGLPVARVADAIPYCSSDWALLREEEKEKYAEMAREWRAAQGKDPGP [V13F] | -0.532 ± 0.26 |
| NRKASRNAYYFFVQEKIPELRRRGLPVARVADAIPYCSADWALLREEEKEKYAEMAREWRAAQGKDPGP [S39A] | -0.058 ± 0.065 |
| NRKASRNAYYWFVQEKIPELRRRGLPVARVADAIPYCSSDWALLREEEKEKYAEMAREWRAAQGKDPGP [F11W] | -0.371 ± 0.15 |
| NRKASRNAYYFFVQEKIIELRRRGLPVARVADAIPYCSSDWALLREEEKEKYAEMAREWRAAQGKDPGP [P18I] | -0.452 ± 0.2 |
| NRKASRNAYYFFVQEKIPELRRRGLPVARVADAIPYCSSDWALLREEEKEKYKEMAREWRAAQGKDPGP [A53K] | -0.226 ± 0.11 |
| NDKASRNAYYFFVQEKIPELRRRGLPVARVADAIPYCSSDWALLREEEKEKYAEMAREWRAAQGKDPGP [R2D] | 0.122 ± 0.1 |
| NRKASRNAYYFFVQEKIPELRRRGLPVARVADAIPYCSSDWALLREEEKEKYAEMAREWRAADGKDPGP [Q63D] | -0.121 ± 0.13 |
| NRKASRNAYYFFVQEKIPELRRRGLPVARVADAIPYCSSDWALLREEEKEKYAEMNREWRAAQGKDPGP [A56N] | -0.16 ± 0.13 |
| NRKASRNAYYFFVQEKIPELRRRGLPVARVADAIPYCSSDWALLREEEKEKYAEMAREWRAAQGSDPGP [K65S] | -0.154 ± 0.066 |
| NIKASRNAYYFFVQEKIPELRRRGLPVARVADAIPYCSSDWALLREEEKEKYAEMAREWRAAQGKDPGP [R2I] | 0.162 ± 0.075 |

| Variant | abundance fitness |
| --- | --- |
| NRKASRNAYYFFVQEKIPELRRRGLPVARVADAIPYCSSDWALLREEEKEKYAEMAREWRAAQPKDPGP [G64P] | -0.022 ± 0.077 |
| NRKASRNAYYFFVQEKIPELRRRGLPVARVADAIPYCSSDWAWLREEEKEKYAEMAREWRAAQGKDPGP [L43W] | -0.287 ± 0.063 |
| NRKASRNAYKFFVQEKIPELRRRGLPVARVADAIPYCSSDWALLREEEKEKYAEMAREWRAAQGKDPGP [Y10K] | -0.454 ± 0.08 |
| NRKASRNAYYFFVQEKIPELRRRGLPVARVADAIDYCSSDWALLREEEKEKYAEMAREWRAAQGKDPGP [P35D] | -0.181 ± 0.16 |
| NRKASRNNYYFFVQEKIPELRRRGLPVARVADAIPYCSSDWALLREEEKEKYAEMAREWRAAQGKDPGP [A8N] | -0.429 ± 0.29 |
| NRKASRNAYYFFVYEKIPELRRRGLPVARVADAIPYCSSDWALLREEEKEKYAEMAREWRAAQGKDPGP [Q14Y] | -0.145 ± 0.13 |
| NRKASRNAYYFFVQEKIPELRRRGLPVARWADAIPYCSSDWALLREEEKEKYAEMAREWRAAQGKDPGP [V30W] | -0.225 ± 0.067 |
| NRKASRNAYYFFVQEKIPELRRRGLPVARVADAIPYCSSDWALGREEEKEKYAEMAREWRAAQGKDPGP [L44G] | -0.864 ± 0.17 |
| NWKASRNAYYFFVQEKIPELRRRGLPVARVADAIPYCSSDWALLREEEKEKYAEMAREWRAAQGKDPGP [R2W] | -0.141 ± 0.058 |
| NRKASRNAYYFFVQEKIPELRRRGLPVARVADAIPYCSSDWALLREEEKEKYAEMAREWRAAQGQDPGP [K65Q] | -0.084 ± 0.089 |
| NRKASRFAYYFFVQEKIPELRRRGLPVARVADAIPYCSSDWALLREEEKEKYAEMAREWRAAQGKDPGP [N7F] | -0.233 ± 0.26 |
| NRKASRNAYYFFVQEKIPELRRRGLPVARVADAIPYCSSDWALLREEEKEKYAEMAREWRAAQGKDNGP [P67N] | -0.105 ± 0.23 |
| NRKASRNAYYFFVQEKIPELRRRGLPVARVADHIPYCSSDWALLREEEKEKYAEMAREWRAAQGKDPGP [A33H] | -0.279 ± 0.28 |
| NRKASRNAYYFFVQEKIPELRRRGLPVARVAYAIPYCSSDWALLREEEKEKYAEMAREWRAAQGKDPGP [D32Y] | -1.09 ± 0.37 |
| NRKASRNAYYFFVQEKIPELRRRGLPVARVADAIPYCSSDWALLREEEKERYAEMAREWRAAQGKDPGP [K51R] | -0.378 ± 0.43 |
| NRKASRNAYYFFVQEKIPELRRRGLPVARVADAITYCSSDWALLREEEKEKYAEMAREWRAAQGKDPGP [P35T] | -0.554 ± 0.11 |
| NRKASRNAYYFFVQEKIPELRRRGLPVARVADAIPYCSSDWALLREEEKEKYMEMAREWRAAQGKDPGP [A53M] | -0.322 ± 0.1 |
| NRKASRNAYYFFVQEKIPELRRRGLPVARVPDAIPYCSSDWALLREEEKEKYAEMAREWRAAQGKDPGP [A31P] | -0.019 ± 0.15 |
| NRKASRNAYYFFVQEKIPELRRRGLPVARVADAIPYCSSDWALLREEEKEKYAEMAREWRAAQGKKPGP [D66K] | 0.171 ± 0.067 |

Source: the Human Domainome abundance scans (Beltran et al. 2025)
